US5563039, “TNF receptor-associated intracellular signaling proteins and methods of use” (Tularik, Inc., dated 1996)

B1: GAL4ad-TRADD (GAL4 activation domain fused to full length TRADD) (other)
chain: MAAGQNGHEEWVGSAYLFVESSLDKVVLSDAYAHPQQKVAVYRALQAALAESGGSPDVLQMLKIHRSDPQLIVQLRFCGRQPCGRFLRAYREGALRAALQRSLAAALAQHSVPLQLELRAGAERLDALLADEERCLSCILAQQPDRLRDEELAELEDALRNLKCGSGARGGDGEVASAPLQPPVPSLSEVKPPPPPPPAQTFLFQGQPVVNRPLSLKDQQTFARSVGLKWRKVGRSLQRGCRALRDPALDSLAYEYEREGLYEQAFQLLRRFVQAEGRRATLQRLVEALEENELTSLAEDLLGLTDPNGGLA
B2: 35S-labeled TRADD prepared by in vitro transcription and translation (other)
chain: MAAGQNGHEEWVGSAYLFVESSLDKVVLSDAYAHPQQKVAVYRALQAALAESGGSPDVLQMLKIHRSDPQLIVQLRFCGRQPCGRFLRAYREGALRAALQRSLAAALAQHSVPLQLELRAGAERLDALLADEERCLSCILAQQPDRLRDEELAELEDALRNLKCGSGARGGDGEVASAPLQPPVPSLSEVKPPPPPPPAQTFLFQGQPVVNRPLSLKDQQTFARSVGLKWRKVGRSLQRGCRALRDPALDSLAYEYEREGLYEQAFQLLRRFVQAEGRRATLQRLVEALEENELTSLAEDLLGLTDPNGGLA
modifications: 35S-labeled

Key:
[1] = target: cytoplasmic domain of Fas antigen expressed as GAL4bd chimera (yeast, UniProt P04386); test: yeast two-hybrid, strain SFY526
[2] = target: GST fusion protein containing the cytoplasmic domain of Fas antigen (Homo sapiens (Human), UniProt P25445); test: GST pull-down of 35S-labeled TRADD

| Binder | binding result [1] | binding result [2] |
| --- | --- | --- |
| B1 | no binding | – |
| B2 | – | no binding |
